From the nanobody polyreactivity screen of Harvey et al. (2022)

Test: yeast display, Sf9 membrane polyspecificity reagent, FACS + sequencing; frameworks hold sequencing errors
Procedure, shortened: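 Galactose induction of a Saccharomyces cerevisiae BJ5465 synthetic nanobody display library ran 36–48 hours. The cells were then stained for 1 hour at 4 °C with 10% biotinylated, detergent-solubilized Sf9 membrane reagent, pulled down on streptavidin microbeads and FACS-sorted into low and high (top ~1%) gates on expression and reagent-binding fluorescence. Labels for polyreactivity follow the gate of origin.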

| Sequence | polyreactivity (PSR sort gate) |
| --- | --- |
| QVQLVESGGGLVQAGGSLRLSCAASGSTFALNAMGWYRQAPGKERELVAAIDDSGITYYADSVKGRFTISRDNAKNTVYLQMNSLKPDDTAVYYCAKKEWKSRTHAKGDQYPDDYWGQGTQVTVSS | low polyreactivity |
| QVQLVESGGGLVQAGGSLRLSCAASGSTFALYVMGRYRQAPGKERELVAAINSVGSKYYADSVKGRFTISRDNAKNTVYLQMHSLKPEDTSVYYCAAVSTYRPGWYYRYNYWGHGTQVTVSS | high polyreactivity |
| QVQLVESGGGLVQAGGSLRLSCAASGSTFANNAMGWYRQAPGKERELVASITTDGSTNYADSVKGRFTIARDNAKNTVYLQMNSLKPEDTAVYYGAADYHTPSSFAPIELYDYWGQGTQVTVSS | low polyreactivity |
| QVQLVESGGGLVQAGGSLRLSCAASGSTFAPYAMGWYRQAPGKERELVASIRSTGSTNYADSVKGRFTISRDNAKNTVYLQMNSLKPEDTAVYYCAARYRRYQYRVKVDYYYWGQGTQVTVSA | high polyreactivity |
| QVQLVESGGGLVQAGGSLRLSCAASGSTFARYTMGWYRQAPGKERELVAAITSNGVSTYYADSVKGRFTISRDNAKNTVYLQMNSLKPEDTAVYYCAASSRSRYGRNDYWGQGTQVTVSS | low polyreactivity |
| QVQLVESGGGLVQAGGSLRLSCAASGSTFARYTMGWYRQAPGKERELVATITNRGGSTYYADSVKGRFTISRDNAKNTVYLQMNSLKPEVTAVYYCNKRYYWGGYDYWGQGTQVTVSS | high polyreactivity |
| QVQLVESGGGLVQAGGSLRLSCAASGSTFATYAMGWYRQAPGKERELVAAITSGGSTYYADSVKGRFTISRDNAKNTVYLQMNSLKPEDTAVYYCAARSYGWRRATYYKREEYWGQGTQVTVSS | high polyreactivity |
| QVQLVESGGGLVQAGGSLRLSCAASGSTFAVNVMGWYRQAPGKERELVATITYRDGRTYYADSVKGRFTISRDNAKNTVYLQMNSLKPEDTAVYYCAADDEYKQEAEMDSWGQGTLVTVSS | low polyreactivity |
| QVQLVESGGGLVQAGGSLRLSCAASGSTFAVYAMGWYRQAPGKERELVASITDGGASTYYADSVKGRFTISRDNAKNTVYLQMNSLKPEDTAVYYCAADTYPTTSEVDYWGQGTQVTVSS | low polyreactivity |
| QVQLVESGGGLVQAGGSLRLSCAASGSTFAVYSMGWYTQAPGKERELVADSSYSGGSTYYADSVKGRFTISRDNAKNTVYLQMNSLIPEDTAVYYCAADWYDWLSTYDDWGQGTQVTVSS | low polyreactivity |
| QVQLVESGGGLVQAGGSLRLSCAASGSTFAVYTMGWYRQAPGKEREMSTSYADSVKGRFTISRDNAKNTVYLQMTCLKPEDTAVYYCNRDFYEFDSNSYRFDYWGQGTQVTVSS | low polyreactivity |
| QVQLVESGGGLVQAGGSLRLSCAASGSTFAYNAMGWYRQAPGKERELVAAISKGGGSTYYADSVKGRFTISRDNAKNTVYLQMNSLKPEDTAVYYCNAYYRSPRGYNYWGQGTQVTVSS | high polyreactivity |
| QVQLVESGGGLVQAGGSLRLSCAASGSTFAYNAMGWYRQAPGKERELVAAISWSGGTTYYADSVKGRFTISRDNAKNTVYLQMNSLKPEDTAVYYCAADVYLNRRQRMYYWGQGTQVTVSS | high polyreactivity |
| QVQLVESGGGLVQAGGSLRLSCAASGSTFAYYAMGWYRQAPGKERELVAAITRSTGRTYYADSVKGRFTISRDNAKNTVYLQMNSLKPEDTAVYYCAKTYGYRQPGDYWGQGTLVTVSS | high polyreactivity |
| QVQLVESGGGLVQAGGSLRLSCAASGSTFAYYAMGWYRQAPGKERELVAASSVSGGRTYYADSVQGRFTISRDNAKNTVYLQMNSLKPEDTAVYYCAARLWRDYYWGQGTQVTVSS | high polyreactivity |
| QVQLVESGGGLVQAGGSLRLSCAASGSTFAYYAMGWYRQAPGKERELVAVISVRGGSTYYADSVKGRFTISRDYAKNTVYLQMNSLKPEDTAVYYCAADTFAGYYYWGQGTQVTVSS | high polyreactivity |
| QVQLVESGGGLVQAGGSLRLSCAASGSTFAYYAMGWYRQAPGKERELVAVISVSGDGTSTYYADSVKGRFTISRDNAKNTVYLQMNSLKPEDSAVYYCAAEQVLVGGHTYSLTYDYWGQGTQVTVSS | low polyreactivity |
| QVQLVESGGGLVQAGGSLRLSCAASGSTFAYYAMGWYRQAPGKEREWVAGISGSGGSTYYADSVKGRFTISRDYAKNTVYLHMNSLKPEDTAVYYCAVVQRSKRTYPWYDYWGQGSQVTVSS | low polyreactivity |
| QVQLVESGGGLVQAGGSLRLSCAASGSTFAYYTMGWYRQAPGKERELVAAISSRGGSTYYADSVKGRFTISRDNAKNTVYLQMNSLKPEDTAVYYCAKSPRVAHYTSAYDYWGQGTQVTVSS | high polyreactivity |
| QVQLVESGGGLVQAGGSLRLSCAASGSTFAYYVMGWYRQAPGKERELVAAISRGGRTYYADSVKGSFTISRDNAKNTVYLQMNSLKPEDTSVYYCNKVYVVYSRSKGFYYTYLKYEYWGQGTQVTVSS | low polyreactivity |
| QVQLVESGGGLVQAGGSLRLSCAASGSTFAYYVMGWYRQAPGKERELVAAITSSGGRTYYADSVKGRFTISRDNAKNTVYLQMNSLKPEDTAVYYWAKVSQRRVDNSDYDYWGQGTQVTVSS | high polyreactivity |
| QVQLVESGGGLVQAGGSLRLSCAASGSTFCENDMGWYRQAPGKERELVAAISWTGGRTYYADSVKGRFTISRDNAKNTVYLQMNSLKAEDTAVYYFAAEWEYYGFDYWGQGTQVTVSS | low polyreactivity |

| Sequence | polyreactivity (PSR sort gate) |
| --- | --- |
| QVQLVESGGGLVQAGGSLRLSCAASGSTFCYYDMGWYRQAPGKERELVATISSGGGTNYAASVKGRFTISRDNAKNTVYLQMNSLKPEDTAVYYCAAQYVIRITFYATYWEDYWGQGTQVTVSS | low polyreactivity |
| QVQLVESGGGLVQAGGSLRLSCAASGSTFDANAMGWYRQEPGKERELVATISDGGSTNYADSVKGRFTISRDNAKNTVYLQMNSLKPEDTAVYYCAADFSPWGGWYMSLDYWGQGTQVTVSS | low polyreactivity |
| QVQLVESGGGLVQAGGSLRLSCAASGSTFDANDMGWYRQAPGKERELVAAITIGGGSTYYADSVKGRFTISRDNAKNTVYLQMNSLKPEDTAVYYCAKDDHTGVHTYPVDYWGQGTQVTVSS | low polyreactivity |
| QVQLVESGGGLVQAGGSLRLSCAASGSTFDDYAMGWYRQAPGKERELVAAISSAGTTYYADSVKGRFTISRDNAKNTVYLQMNSLKPEDTAVYYCNTVLYPVWYVNFSLRYRYDYYWGQGTQVTVSS | high polyreactivity |
| QVQLVESGGGLVQAGGSLRLSCAASGSTFDDYTMGWYRQAPGKERELLAAISSDSSTNYADSVKGRFTISRDNAKNTVYLQMNSLKPEDTAVYYCATRSRTTKIVRWPGMYYWGQGTQVTVSS | high polyreactivity |
| QVQLVESGGGLVQAGGSLRLSCAASGSTFDGNAMGWYRPAPGKERELVAAITWRDGSTSYADSVKGRFTISRDNAKNTVYLQMNSLKPEDTAVYYCNADPGYLDEEYWGQGTQVTVSS | low polyreactivity |
| QVQLVESGGGLVQAGGSLRLSCAASGSTFDGNAMGWYRQAPGKERELVAAITSGGSTNYADSVKGRFTILRDNAKNTVYLQMNSLKPEDTAVYYCAAGWLYARWHSYVGYYYWGQGTQVTVSS | low polyreactivity |
| QVQLVESGGGLVQAGGSLRLSCAASGSTFDINAMGWYRQAPGKERHLVAAITYDTTTTYYADSVKGRFTISRDNAKNTVYLLMNSLKPEDTAVYYCAVEGLLGDTTYVQGYPYWYNYWGQGTQVTVSS | low polyreactivity |
| QVQLVESGGGLVQAGGSLRLSCAASGSTFDIYAMGWYRQAPGKERELVAAITGSSGSTYYADSVKGRFTISRDNAKNTVYLQMNSLKPEDTAVYYCAADIVRVSTVPSLVYSYYWGQGTQVTVSS | low polyreactivity |
| QVQLVESGGGLVQAGGSLRLSCAASGSTFDIYVMGWYRQAPGKESELVAAISRVGNTSYADSVKGRFTISRDNAKNTVNLQMNSLKPEDTAVYYCAADAPSWYDRQYDYWGQCTQVTVSS | low polyreactivity |
| QVQLVESGGGLVQAGGSLRLSCAASGSTFDPKAMGWYRQAPGKERELVAAISYTGGRTYYADSVKGRFTISRDNAKNTVYLQMNSLKPEDTAVYYCAVLVVGSTTQDEPYFSGVEHDYWGQGTQVTVSS | low polyreactivity |
| QVQLVESGGGLVQAGGSLRLSCAASGSTFDPYAMGWYRQAPGKERELVAGISASGGSTYADSVKGRFTISRDNAKNTVYLQMNSLKPEDTACYYCAADTYLIRGPPDEEYWGQGTQVTVSS | low polyreactivity |
| QVQLVESGGGLVQAGGSLRLSCAASGSTFDQYGMGWYRQAPGKDRELVAAITSVGGTNYADSVKGRFTISRDNAKKTVYLQMNSLKPEDTAVYYCARRYPKNHKAPGRMDYWGQGTQVTVSS | low polyreactivity |
| QVQLVESGGGLVQAGGSLRLSCAASGSTFDRNVMGWYRQAPGKERELVAAISRVSSTNYADSVKGRFTISRDNAKNTVYLQMNSLKPEDTAVYYCAVDRAGSIMNYWGQGTQVTVSS | low polyreactivity |
| QVQLVESGGGLVQAGGSLRLSCAASGSTFDRYAMAWYRQAPGKERELVAAISKNGGRTYYADSVKGRFTISRDNAKNTVYLQMNSLKPEDTAVYYCAKDIIKYDYDYWGQGTQVTVSS | low polyreactivity |
| QVQLVESGGGLVQAGGSLRLSCAASGSTFDRYAMGWYRQAPGKERELVAAISCSGGRTYYADSVKGRFTISRDNEKNTVYLQMNSLKPEDTAVYYCATVSRSSLAYIKYDYWGQGTQVTVSA | high polyreactivity |
| QVQLVESGGGLVQAGGSLRLSCAASGSTFDRYDMVWYRQAPGKETELVAAITRRGGSTYYADSVKGRFTFSRDNAKNTVYLQMNSLQPEDTAVYYCNAKHFAYSVAHPYLRYGYDYWGQGTHVTVSS | low polyreactivity |
| QVQLVESGGGLVQAGGSLRLSCAASGSTFDSNAMGWYRQAPGKERELVAGITIGGSTNYADSVKGRFTISRDNAKNTVFLQMNSLKPEDTAVYYCNVVKYVYIYSYWEYYYWGQGTQVTVSS | low polyreactivity |
| QVQLVESGGGLVQAGGSLRLSCAASGSTFDSYAMGWYRQAPGKEGELVAAITGGGDTNYADSVKGRFTISRDNAKNTVYLQMNSLKPEDTAVYYCAAYQRRGNYQMDLWGQGTQVTVSS | low polyreactivity |
| QVQLVESGGGLVQAGGSLRLSCAASGSTFDSYAMGWYRQAPGKERELVAAITNGGSTYYADSVKGRFTISRDNAKNTVYLQMNSLKPEDTEVYYCATDDYLLDYLYDYWGQGTQVTVSS | low polyreactivity |
| QVQLVESGGGLVQAGGSLRLSCAASGSTFDTYAMGWYRQAPGKERELGAAISWSVDSTYYADSVKGRFTISRDNAKNTVYLQMNSLKPEDTAVYYCATVGYGYDYWGQGTQVTVSS | high polyreactivity |
